Laboratory results from patent US20240101635A1 (AKSTON BIOSCIENCES, published 2024).
Residue numbers refer to the chain shown, from its start. In names and notes the source's numbering stands. Values belong to the binder of their own block, whether it stands above or below them.

Experiments:
human insulin receptor = molecular target: T1, human insulin receptor (human, UniProt P06213 28-1382); assay: competition with biotinylated RHI on IM-9 cells, flow cytometry, 4 C
T1 construct: whole, on cells; Endogenous receptor on IM-9 cells; also called IR
T1 sequence (P06213 28-1382): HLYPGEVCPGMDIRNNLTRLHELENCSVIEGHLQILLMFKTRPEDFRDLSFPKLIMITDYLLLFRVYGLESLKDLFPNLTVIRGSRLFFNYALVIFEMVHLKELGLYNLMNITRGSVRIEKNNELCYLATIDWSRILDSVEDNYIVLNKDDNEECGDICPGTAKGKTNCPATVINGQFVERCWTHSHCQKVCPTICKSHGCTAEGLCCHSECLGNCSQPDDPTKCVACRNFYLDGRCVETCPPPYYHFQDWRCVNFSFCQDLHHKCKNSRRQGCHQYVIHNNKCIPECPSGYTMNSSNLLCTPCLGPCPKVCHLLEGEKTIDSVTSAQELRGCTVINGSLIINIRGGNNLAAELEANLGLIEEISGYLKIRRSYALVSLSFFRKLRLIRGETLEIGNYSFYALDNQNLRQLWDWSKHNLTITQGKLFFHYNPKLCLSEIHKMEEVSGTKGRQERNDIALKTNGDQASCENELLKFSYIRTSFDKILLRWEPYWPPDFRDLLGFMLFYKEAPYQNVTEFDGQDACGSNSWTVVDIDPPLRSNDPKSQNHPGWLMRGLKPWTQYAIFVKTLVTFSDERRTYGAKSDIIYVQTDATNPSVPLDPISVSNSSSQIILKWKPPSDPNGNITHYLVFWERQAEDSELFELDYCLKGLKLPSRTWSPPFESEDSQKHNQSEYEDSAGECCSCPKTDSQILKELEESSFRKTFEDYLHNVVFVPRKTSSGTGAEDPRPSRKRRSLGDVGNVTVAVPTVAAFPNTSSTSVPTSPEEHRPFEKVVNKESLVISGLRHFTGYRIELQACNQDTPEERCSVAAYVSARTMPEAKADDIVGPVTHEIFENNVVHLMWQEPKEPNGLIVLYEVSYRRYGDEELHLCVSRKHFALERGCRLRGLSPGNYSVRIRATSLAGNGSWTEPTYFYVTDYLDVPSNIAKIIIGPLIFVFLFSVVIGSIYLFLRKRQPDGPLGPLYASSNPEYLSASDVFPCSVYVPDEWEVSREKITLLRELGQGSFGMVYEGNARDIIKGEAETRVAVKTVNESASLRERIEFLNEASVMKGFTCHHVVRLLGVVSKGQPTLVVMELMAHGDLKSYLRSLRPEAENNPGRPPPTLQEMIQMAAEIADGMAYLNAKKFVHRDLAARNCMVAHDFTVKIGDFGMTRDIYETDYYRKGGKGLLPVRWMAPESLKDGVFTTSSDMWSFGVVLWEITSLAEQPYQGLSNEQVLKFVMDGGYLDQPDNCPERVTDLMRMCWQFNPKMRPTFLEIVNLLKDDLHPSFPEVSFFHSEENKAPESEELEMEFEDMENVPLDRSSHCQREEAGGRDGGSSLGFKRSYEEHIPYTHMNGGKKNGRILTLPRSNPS
Procedure: 40 μL of an IM-9 cell suspension (8×10⁶ cells/mL) was then added to each well by multichannel pipette, mixed again gently and incubated on ice for 30 min to allow competitive binding on the insulin receptor on IM-9 cells. Cells were then washed twice with 275 μL of ice-cold FACS wash buffer (HBSS/2 mM EDTA/0.1% Na-azide+0.5% horse serum) by centrifuging the V-bottom plate at 3000 rpm for 3 min and aspirating the supernatant. Cells were then resuspended in 40 μL of FACS staining medium containing 1:100 diluted Streptavidin-PE (Life Technologies) for 20 min on ice. Cells were then washed once with 275 μL of ice-cold FACS buffer and finally fixed with 3% paraformaldehyde for 10 min at room temp. Cells were then washed once with 275 μL of ice-cold FACS buffer and resuspended in 250 μl of FACS buffer for analysis.
The V-bottom plates containing cells were then analyzed on a Guava 8-HT flow cytometer (Millipore). Biotinylated-RHI binding to insulin receptor was quantitated by the median fluorescence intensity (MFI) of the cells on the FACS FL-2 channel for each concentration of the test compound. Control wells were labeled only with biotinylated-RHI and were used to calculate the percent (%) inhibition resulting from each test compound concentration. The % inhibition by test compounds of biotinylated-RHI binding on IM-9 cells was plotted against log concentrations of the test compound, and the resulting IC50 values were calculated using GraphPad Prism (GraphPad Software, La Jolla, CA) for the test compounds. Lower IC50 values of the test compound therefore indicate greater levels of biotinylated-RHI inhibition at lower concentrations indicating stronger binding of the insulin-Fc fusion protein to the insulin receptor. A control compound, such as unlabeled recombinant human insulin (RHI) was also used as an internal standard to generate an RHI IC50 against which a given compound IC50 could be ratioed (IC50(compound)/IC50(RHI)). Lower IC50 ratios have more similar binding to RHI (stronger binding to insulin receptor), while higher IC50 ratios have weaker binding to the insulin receptor relative to RHI.

[1] = molecular target: T2, biotinylated recombinant human Fc(gamma) receptor I (human, UniProt P12314 16-288, biotinylated (site not stated)); assay: ELISA, fusion protein coated, biotinylated rhFc(gamma)RI at 3000 ng/mL, pH 7.4
T2 construct: Bought reagent, used as surrogate for canine/feline Fc(gamma)RI; also called rhFc(gamma) receptor I; Fc(gamma)RI
T2 sequence (P12314 16-288 limits assumed): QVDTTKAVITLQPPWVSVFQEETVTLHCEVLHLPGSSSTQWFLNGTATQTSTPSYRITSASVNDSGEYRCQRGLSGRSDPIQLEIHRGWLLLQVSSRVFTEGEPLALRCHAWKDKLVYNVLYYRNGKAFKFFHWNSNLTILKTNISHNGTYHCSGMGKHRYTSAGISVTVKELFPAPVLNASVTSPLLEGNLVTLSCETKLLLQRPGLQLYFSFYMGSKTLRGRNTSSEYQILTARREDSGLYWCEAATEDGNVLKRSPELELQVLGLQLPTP
Procedure: (§1) The binding of insulin-Fc fusion proteins to the Fc(gamma) receptor I at pH 7.4 was conducted using an ELISA assay as follows. Since neither canine nor feline Fc(gamma) receptor I was not commercially available, human Fc(gamma) receptor I (i.e., rhFc(gamma) receptor I) was used as a surrogate mammalian receptor. Insulin-Fc compounds were diluted to 10 μg/mL in sodium bicarbonate buffer at pH 9.6 and coated on Maxisorp (Nunc) microtiter plates overnight at 4° C., after which the microplate strips were washed 5 times with PBST (PBS/0.05% Tween-20) buffer and blocked with Superblock blocking reagent (ThermoFisher). Serial dilutions of biotinylated rhFc(gamma) receptor I (recombinant human Fc(gamma)R-I; R&D Systems) were prepared in PBST/10% Superblock buffer from 6000 ng/mL to 8.2 ng/mL and loaded at 100 μL/well onto the microplate strips coated with insulin-Fc fusion protein. The microtiter plate was incubated for 1 hour at room temperature after which the microplate strips were washed 5 times with PBST and then loaded with 100 μL/well of streptavidin-HRP diluted 1:10000 in PBST/10% Superblock buffer. After incubating for 45 min, the microplate strips were washed again 5 times with PBST. TMB was added to reveal the bound Fc(gamma) receptor I proteins and stopped with ELISA stop reagent (Boston Bioproducts). The plate was read in an ELISA plate reader at 450 nm, and the OD values (proportional to the binding of rhFc(gamma) receptor I to insulin-Fc protein) were plotted against log concentrations of rhFc(gamma) receptor I added to each well to generate binding curves using GraphPad Prism software.
Finally, select compounds were tested for their likelihood to interact with the immune system by measuring their Fc(gamma) receptor binding activity according to the procedure of Example 8. Table 19 compares the Fc(gamma) receptor I binding of these insulin-Fc fusion proteins with the Fc(gamma) receptor binding of the insulin-Fc fusion protein of SEQ ID NO: 52.

[2] = molecular target: T2, biotinylated recombinant human …; assay: ELISA, fusion protein coated, biotinylated rhFc(gamma)RI in solution, pH 7.4
Procedure: as §1
Low Fc(gamma) receptor binding is most likely to correlate with minimum immunogenicity.

biotinylated canine FcRn = biotinylated canine FcRn (canine, UniProt A0A8I3PFR8 25-347, biotinylated (site not stated)); assay: ELISA pH 5.5, fusion protein coated, biotinylated canine FcRn titrated
biotinylated canine FcRn, sequence (A0A8I3PFR8 entry or part of it): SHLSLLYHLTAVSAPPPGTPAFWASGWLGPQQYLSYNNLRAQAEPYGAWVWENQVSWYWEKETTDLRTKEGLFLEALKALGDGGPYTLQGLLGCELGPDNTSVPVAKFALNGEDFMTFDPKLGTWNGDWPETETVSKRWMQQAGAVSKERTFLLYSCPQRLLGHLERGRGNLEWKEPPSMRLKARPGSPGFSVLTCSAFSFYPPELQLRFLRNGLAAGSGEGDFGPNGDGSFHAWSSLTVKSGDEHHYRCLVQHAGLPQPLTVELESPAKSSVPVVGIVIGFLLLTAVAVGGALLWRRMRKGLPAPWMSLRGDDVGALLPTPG
Procedure: Insulin-Fc fusion proteins comprising Fc fragments of canine or feline origin were diluted to 10 μg/ml in sodium bicarbonate pH 9.6 buffer and coated in duplicate on Maxisorb ELISA plate strips for 1-2 hours at RT. The strips were then washed 4 times with PBST (PBS/0.1% Tween-20) buffer and blocked with Superblock blocking reagent (ThermoFisher). Strips for FcRn binding were then washed again twice with pH 5.5 MES/NaCl/Tween (50 mM MES/l50 mM NaCl/0.1% Tween-20) buffer before addition of the FcRn reagent (biotinylated canine FcRn; Immunitrack). […] Serial dilutions (1:3× dilutions) of biotinylated FcRn reagent were prepared in pH 5.5 MES/NaCl/Tween/10% Superblock buffer at concentrations from 1000 ng/ml to 0.45 ng/ml and loaded at 100 μL/well using a multichannel pipettor onto the strips coated with the insulin-Fc fusion protein compounds. The assay plate was then incubated for 1 hour at room temperature. FcRn binding strips were washed 4 times with pH 5.5 MES/NaCl/Tween buffer and then loaded with 100 μl/well […] diluted 1:10000 in pH 5.5 MES/NaCl/10% Superblock buffer. After incubating for 45 minutes, strips were washed again 4 times with pH 5.5 MES/NaCl/Tween buffer. TMB was finally added to reveal the bound biotinylated-canine FcRn reagent, and the color development was stopped with the ELISA stop reagent. The plate was read in an ELISA plate reader at a wavelength of 450 nm. The OD values (proportional to the binding of canine-FcRn to the insulin-Fc fusion protein test compounds) were plotted against log concentrations of FcRn added to each well to generate binding curves using GraphPad Prism software. EC50 values for each binding curve were calculated to compare between different compounds.

B1: insulin-Fc fusion protein of SEQ ID NO: 56 (Fc fusion)
chain: FVNQHLCGSDLVEALALVCGERGFFYTDPTGGGPRRGIVEQCCHSICSLYQLENYCNGGGGAGGGGCISPCPVPESLGGPSVFIFPPKPKDILRITRTPEITCVVLDLGREDPEVQISWFVDGKEVHTAKTQPREQQFNSTYRVVSVLPIEHQDWLTGKEFKCRVNHIGLPSPIERTISKARGQAHQPSVYVLPPSPKELSSSDTVTLTCLIKDFFPPEIDVEWQSNGQPEPESKYHTTAPQLDEDGSYFLYSKLSVDKSRWQQGDTFTCAVMHEALQNHYTDLSLSHSPG
notes: only 12% homodimer (aggregated)
- IC50 (human insulin receptor): > 5000 nM

B3: insulin-Fc fusion protein of SEQ ID NO: 96 (Fc fusion)
chain: FVNQHLCGSHLVEALELVCGERGFHYGGGGGGSGGGGGIVEQCCTSTCSLDQLENYCGGGGGQGGGGQGGGGQGGGGGRCTDTPPCPVPEPLGGPSVLIFPPKPKDILRITRTPEVTCVVLDLGREDPEVQISWFVDGKEVHTAKTQSREQQFNGTYRVVSVLPIEHQDWLTGKEFKCRVNHIDLPSPIERTISKARGRAHKPSVYVLPPSPKELSSSDTVSITCLIKDFYPPDIDVEWQSNGQQEPERKHRMTPPQLDEDGSYFLYSKLSVDKSRWQQGDPFTCAVMHETLQNHYTDLSLSHSPG
notes: purified on Protein A or Protein G
- OD450 nm at a Fc(gamma)RI concentration of 3000 (ng/mL) [1]: 0.253 OD450
- Ratio to SEQ ID NO: 52 [1]: 0.53 ratio

B4: insulin-Fc fusion protein of SEQ ID NO: 116 (Fc fusion)
chain: FVNQHLCGSHLVEALALVCGERGFFYTDPAGGGPRRGIVEQCCASVCSLYQLEHYCGGGGAGGGGGEGPKCPVPEIPGAPSVFIFPPKPKDTLSISRTPEVTCLVVDLGPDDSNVQITWFVDNTEMHTAKTRPREEQFSSTYRVVSVLPILHQDWLKGKEFKCKVNSKSLPSAMERTISKAKGQPHEPQVYVLPPTQEELSENKVSVTCLIKGFHPPDIAVEWEITGQPEPENNYQTTPPQLDSDGTYFLYSRLSVDRSHWQRGNTYTCSVSHEALHSHHTQKSLTQSPG
notes: homodimer
- IC50 (human insulin receptor): 707 nM

B5: insulin-Fc fusion protein of SEQ ID NO: 52 (Fc fusion)
chain: FVNQHLCGSDLVEALALVCGERGFFYTDPTGGGPRRGIVEQCCHSICSLYQLENYCNGGGGAGGGGDCPKCPAPEMLGGPSVFIFPPKPKDTLLIARTPEVTCVVVDLDPEDPEVQISWFVDGKQMQTAKTQPREEQFNGTYRVVSVLPIGHQDWLKGKQFTCKVNNKALPSPIERTISKARGQAHQPSVYVLPPSREELSKNTVSLTCLIKDFFPPDIDVEWQSNGQQEPESKYRTTPPQLDEDGSYFLYSKLSVDKSRWQRGDTFICAVMHEALHNHYTQESLSHSPG
notes: Homodimer; HEK293, Protein A
- IC50 (human insulin receptor): 28 nM
- OD450 nm Minus Assay Background [2]: 0.323 OD450
- Ratio to SEQ ID NO: 52 [2]: 1 ratio
- OD450 nm Minus Assay Background [1]: 0.371 OD450
- OD450 nm at a Fc(gamma)RI concentration of 3000 (ng/mL) [1]: 0.428 OD450
- Ratio to SEQ ID NO: 52 [1]: 1 ratio

B6: insulin-Fc fusion protein of SEQ ID NO: 64 (Fc fusion)
chain: B5 chain with N139K
notes: homodimer; also called cNg-K; cNg-NB139-K
- Ratio to SEQ ID NO: 52 [2]: 0.2 ratio

B9: insulin-Fc fusion protein of SEQ ID NO: 104 (Fc fusion)
chain: FVNQHLCGSHLVEALELVCGERGFHYGGGGGGSGGGGGIVEQCCTSTCSLDQLENYCGGGGGQGGGGQGGGGQGGGGGDCPKCPAPEMLGGPSVFIFPPKPKDTLLIARTPEVTCVVVDLDPEDPEVQISWFVDGKQMQTAKTQPREEQFSGTYRVVSVLPIGHQDWLKGKQFTCKVNNKALPSPIERTISKARGQAHQPSVYVLPPSREELSKNTVSLTCLIKDFFPPDIDVEWQSNGQQEPESKYRTTPPQLDEDGSYFLYSKLSVDKSRWQRGDTFICAVMHEALHNHYTQESLSHSPG
notes: 71% homodimer; also called cNg-NB151-S
- OD450 nm at a Fc(gamma)RI concentration of 3000 (ng/mL) [1]: 0.175 OD450
- Ratio to SEQ ID NO: 52 [1]: 0.32 ratio

Now from value to binder:

- IC50 (human insulin receptor): 3480 nM
B2: insulin-Fc fusion protein of SEQ ID NO: 114 (Fc fusion)
chain: FVNQHLCGSHLVEALALVCGERGFFYTDPAGGGPRRGIVEQCCASVCSLYQLEHYCGGGGAGGGGGEGPKCPVPEIPGAPSVFIFPPKPKDTLSISRTPEVTCLVVDLGPDDSNVQITWFVDNTEMHTAKTRPREEQFNSTYRVVSVLPILHQDWLKGKEFKCKVNSKSLPSAMERTISKAKGQPHEPQVYVLPPTQEELSENKVSVTCLIKGFHPPDIAVEWEITGQPEPENNYQTTPPQLDSDGTYFLYSRLSVDRSHWQRGNTYTCSVSHEALHSHHTQKSLTQSP
notes: homodimer

- EC50 (biotinylated canine FcRn): 6.92 µg/mL
B7: insulin-Fc fusion protein of SEQ ID NO: 124 (Fc fusion)
chain: FVNQHLCGSHLVEALELVCGERGFHYGGGGGGSGGGGGIVEQCCTSTCSLDQLENYCGGGGGQGGGGQGGGGQGGGGGDCPKCPPPEMLGGPSIFIFPPKPKDTLSISRTPEVTCLVVDLGPDDSDVQITWFVDNTQVYTAKTSPREEQFSSTYRVVSVLPILHQDWLKGKEFKCKVNSKSLPSPIERTISKDKGQPHEPQVYVLPPAQEELSRNKVSVTCLIEGFYPSDIAVEWEITGQPEPENNYRTTPPQLDSDGTYFLYSRLSVDRSRWQRGNTYTCSVSHEALHSHHTQKSLTQSPG
notes: homodimer

- OD450 nm at a Fc(gamma)RI concentration of 3000 (ng/mL) [1]: 0.177 OD450
- Ratio to SEQ ID NO: 52 [1]: 0.32 ratio
B8: insulin-Fc fusion protein of SEQ ID NO: 36 (Fc fusion)
chain: B9 chain with E16A
notes: homodimer; also called cNg-S and B16A

- OD450 nm at a Fc(gamma)RI concentration of 3000 (ng/mL) [1]: 0.166 OD450
- Ratio to SEQ ID NO: 52 [1]: 0.29 ratio
B10: insulin-Fc fusion protein of SEQ ID NO: 102 (Fc fusion)
chain: B9 chain with D119A
notes: 73% homodimer; also called cNg-NB151-S, NB119-A

- IC50 (human insulin receptor): > 5000 nM
B11: insulin-Fc fusion protein of SEQ ID NO: 118 (Fc fusion)
chain: FVNQHLCGSHLVEALALVCGERGFFYTDPAGGGPRRGIVEQCCASVCSLYQLEHYCGGGGAGGGGDCPKCPPPEMLGGPSIFIFPPKPKDTLSISRTPEVTCLVVALGPDDSDVQITWFVDNTQVYTAKTSPREEQFSSTYRVVSVLPILHQDWLKGKEFKCKVNSKSLPSPIERTISKDKGQPHEPQVYVLPPAQEELSRNKVSVTCLIEGFYPSDIAVEWEITGQPEPENNYRTTPPQLDSDGTYFLYSRLSVDRSRWQRGNTYTCSVSHEALHSHHTQKSLTQSPG
notes: homodimer
